# Measured values as given in publication PMC4447949, “Structures of the Ets Protein DNA-binding Domains of Transcription Factors Etv1, Etv4, Etv5, and Fev” (The Journal of Biological Chemistry, 2015).
# B1: Etv1ALF/Etv1ALR EMSA probe (dsDNA)
# DNA 1: ATCTCACCGGAAGTGTAGCA
# DNA 2: TGCTACACTTCCGGTGAGAT
# How the values were obtained:
# Conditions in all cases: protein: recombinant; tags: N-terminal His6 removed by TEV (leaves SM); blunt
# Etv1 K379A = Etv1 K379A (human, UniProt P50549 326-429, K379A); assay: EMSA; 2 nM and 0.1 nM probe; EMSA: 50 mM Tris-HCl pH 7.5, 50 mM NaCl, 2 mM MgCl2, 0.01% Tween 20, 5% glycerol, 1 h at room temperature; proteins reduced with 10 mM TCEP unless stated; 10% native PAGE
# Etv1 Y397F = Etv1 Y397F (human, UniProt P50549 326-429, Y397F); assay: EMSA; 2 nM probe; undetectable or below regression threshold; EMSA: 50 mM Tris-HCl pH 7.5, 50 mM NaCl, 2 mM MgCl2, 0.01% Tween 20, 5% glycerol, 1 h at room temperature; proteins reduced with 10 mM TCEP unless stated; 10% native PAGE
# Etv1 C416S [1] = molecular target: T1, Etv1 C416S (human, UniProt P50549 326-429, C416S); assay: EMSA; 0.1 nM probe; EMSA: 50 mM Tris-HCl pH 7.5, 50 mM NaCl, 2 mM MgCl2, 0.01% Tween 20, 5% glycerol, 1 h at room temperature; proteins reduced with 10 mM TCEP unless stated; 10% native PAGE
# Etv1 R394A = Etv1 R394A (human, UniProt P50549 326-429, R394A); assay: EMSA; 2 nM probe; 10 mM TCEP; EMSA: 50 mM Tris-HCl pH 7.5, 50 mM NaCl, 2 mM MgCl2, 0.01% Tween 20, 5% glycerol, 1 h at room temperature; proteins reduced with 10 mM TCEP unless stated; 10% native PAGE
# Etv1 D387A = Etv1 D387A (human, UniProt P50549 326-429, D387A); assay: as above
# [2] = molecular target: Etv1 Ets domain WT (reduced monomer) (human, UniProt P50549 326-429); assay: as above
# Etv1 R391A = Etv1 R391A (human, UniProt P50549 326-429, R391A); assay: as above
# Etv1 Y396F = Etv1 Y396F (human, UniProt P50549 326-429, Y396F); assay: as above
# Etv1 Y329S-P427S = Etv1 Y329S-P427S (human, UniProt P50549 326-429, Y329S;P427S); assay: as above
# Etv1 K404A = Etv1 K404A (human, UniProt P50549 326-429, K404A); assay: EMSA; 2 nM probe; EMSA: 50 mM Tris-HCl pH 7.5, 50 mM NaCl, 2 mM MgCl2, 0.01% Tween 20, 5% glycerol, 1 h at room temperature; proteins reduced with 10 mM TCEP unless stated; 10% native PAGE
# Etv1 C416S [3] = molecular target: T1, Etv1 C416S; assay: as above
# Etv5 Ets domain = Etv5 Ets domain (human, UniProt P41161 365-462); assay: EMSA; 10 mM TCEP; probe 0.1 nM (Table 3) or 0.2 nM (Fig. 9); EMSA: 50 mM Tris-HCl pH 7.5, 50 mM NaCl, 2 mM MgCl2, 0.01% Tween 20, 5% glycerol, 1 h at room temperature; proteins reduced with 10 mM TCEP unless stated; 10% native PAGE
# Etv4 Ets domain = Etv4 Ets domain (human, UniProt P43268 338-470); assay: as above
# Etv1 Y395F = Etv1 Y395F (human, UniProt P50549 326-429, Y395F); assay: EMSA; 2 nM probe; 10 mM TCEP; saturates at 60% of probe; EMSA: 50 mM Tris-HCl pH 7.5, 50 mM NaCl, 2 mM MgCl2, 0.01% Tween 20, 5% glycerol, 1 h at room temperature; proteins reduced with 10 mM TCEP unless stated; 10% native PAGE
# Etv1 S334E = Etv1 S334E (human, UniProt P50549 326-429, S334E); assay: EMSA; 2 nM probe; 10 mM TCEP; saturates at 35% of probe; EMSA: 50 mM Tris-HCl pH 7.5, 50 mM NaCl, 2 mM MgCl2, 0.01% Tween 20, 5% glycerol, 1 h at room temperature; proteins reduced with 10 mM TCEP unless stated; 10% native PAGE
# Chain of Etv1 S334E (P50549 326-429 S334E): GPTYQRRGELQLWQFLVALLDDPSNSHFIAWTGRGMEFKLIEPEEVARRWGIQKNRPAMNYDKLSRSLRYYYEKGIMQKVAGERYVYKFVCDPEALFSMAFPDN
# T1 sequence (P50549 326-429 C416S): as the sequence (P50549 326-429 S334E) above, with E9S, C91S counted along it
# Chain of Etv1 R394A (P50549 326-429 R394A): as the sequence (P50549 326-429 S334E) above, with E9S, R69A counted along it
# Chain of Etv1 D387A (P50549 326-429 D387A): as the sequence (P50549 326-429 S334E) above, with E9S, D62A counted along it
# Chain of Etv1 Y396F (P50549 326-429 Y396F): as the sequence (P50549 326-429 S334E) above, with E9S, Y71F counted along it
# Chain of Etv1 Ets domain WT (reduced monomer) (P50549 326-429): as the sequence (P50549 326-429 S334E) above, with E9S counted along it
# Chain of Etv1 Y329S-P427S (P50549 326-429 Y329S/P427S): as the sequence (P50549 326-429 S334E) above, with Y4S, E9S, P102S counted along it
# Chain of Etv1 R391A (P50549 326-429 R391A): as the sequence (P50549 326-429 S334E) above, with E9S, R66A counted along it
# Chain of Etv1 Y395F (P50549 326-429 Y395F): as the sequence (P50549 326-429 S334E) above, with E9S, Y70F counted along it
# Chain of Etv1 Y397F (P50549 326-429 Y397F): as the sequence (P50549 326-429 S334E) above, with E9S, Y72F counted along it
# Chain of Etv1 K404A (P50549 326-429 K404A): as the sequence (P50549 326-429 S334E) above, with E9S, K79A counted along it
# Chain of Etv5 Ets domain (P41161 365-462): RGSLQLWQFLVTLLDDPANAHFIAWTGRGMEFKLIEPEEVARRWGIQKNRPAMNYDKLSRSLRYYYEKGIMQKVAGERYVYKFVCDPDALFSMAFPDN
# Chain of Etv1 K379A (P50549 326-429 K379A): as the sequence (P50549 326-429 S334E) above, with E9S, K54A counted along it
# Chain of Etv4 Ets domain (P43268 338-470): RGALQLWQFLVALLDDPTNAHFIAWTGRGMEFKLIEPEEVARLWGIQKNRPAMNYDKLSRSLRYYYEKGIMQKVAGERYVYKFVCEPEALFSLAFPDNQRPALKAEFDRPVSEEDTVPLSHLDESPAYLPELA
binder,measurement,setting,value
B1,binding result,Etv1 K379A,no binding
same,binding result,Etv1 Y397F,no binding
same,Kd,Etv1 C416S [1],0.26 ± 0.06 nM
same,Kd,Etv1 R394A,276 ± 62.7 nM
same,Kd,Etv1 D387A,0.17 ± 0.02 nM
same,Kd,[2],0.27 ± 0.028 nM
same,Kd,Etv1 R391A,11.8 ± 1.48 nM
same,Kd,Etv1 Y396F,2640 ± 935 nM
same,Kd,Etv1 Y329S-P427S,0.25 ± 0.026 nM
same,binding result,Etv1 K404A,no binding
same,Kd,Etv1 C416S [3],0.46 ± 0.06 nM
same,Kd,Etv5 Ets domain,1.16 ± 0.11 nM
same,Kd,Etv4 Ets domain,0.34 ± 0.066 nM
same,Kd,Etv1 Y395F,0.23 ± 0.05 nM
same,Kd,Etv1 S334E,0.89 ± 0.32 nM
